The values that follow come from the Human Domainome abundance scans (Beltran et al. 2025).

± gives the uncertainty stated by the source.

First the molecules themselves.
B1: Storkhead-box protein 2, residues 64 to 141; numbered along this chain, Q9P2F5 (parent)
chain: SPISQSQFIPLGEILCLAISAMNSARKPVTQEALMEHLTTCFPGVPTPSQEILRHTLNTLVRERKIYPTPDGYFIVTP

In the data set the parent is B1. In words: abundance fitness (aPCA) (normalised: wild type 0, dead -1); higher = more abundant; growth selection in yeast, the domain comes from the species named. The settings on record: Homo sapiens.
As for S1P, the abundance fitness is -0.469 ± 0.15.

In the case of S1K, the abundance fitness is -0.717 ± 0.15.

For the variant S1D, the abundance fitness was -0.027 ± 0.19.

Consider S1M, for which the abundance fitness is -0.227 ± 0.15.

For P46I, the abundance fitness is 0.015 ± 0.085.

On to P46F, for which the abundance fitness was -0.408 ± 0.08.

As to P46C, the abundance fitness was -0.078 ± 0.067.

On to P46K, for which the abundance fitness is -0.243 ± 0.1.

With P46S, the abundance fitness was -0.15 ± 0.045.

For P46W, the abundance fitness was -0.174 ± 0.044.

On to F8C, for which the abundance fitness was -0.104 ± 0.071.

As to F8L, the abundance fitness was -0.135 ± 0.054.

As to F8S, the abundance fitness came out at 0.017 ± 0.058.

Take F8K: the abundance fitness is -0.137 ± 0.11.

For the variant I14V, the abundance fitness was -0.031 ± 0.068.

As to I14W, the abundance fitness is -0.105 ± 0.079.

I14P: the abundance fitness is -0.032 ± 0.085.

Take I14D: the abundance fitness is -0.258 ± 0.41.

For I14M, the abundance fitness was 0.024 ± 0.15.

As to I14R, the abundance fitness was -0.073 ± 0.059.

For the variant F74S, the abundance fitness was determined as 0.077 ± 0.057.

Regarding F74E, the abundance fitness was -0.004 ± 0.086.

In the case of F74V, the abundance fitness was -0.003 ± 0.051.

F74Y: the abundance fitness was -0.065 ± 0.14.

On to T30V, for which the abundance fitness was -0.033 ± 0.042.

For E32C, the abundance fitness was -0.174 ± 0.11.

For the variant E32N, the abundance fitness was -0.126 ± 0.11.

As to E32W, the abundance fitness is -0.139 ± 0.047.

Turning to E32L, the abundance fitness was -0.117 ± 0.046.

Consider L60F, for which the abundance fitness was -0.401 ± 0.068.

On to L60G, for which the abundance fitness was -0.706 ± 0.057.

As to L60C, the abundance fitness was -0.107 ± 0.076.

L60T: the abundance fitness is -0.87 ± 0.075.

L38W: the abundance fitness is -0.048 ± 0.061.

Take L38Q: the abundance fitness was -0.865 ± 0.16.

On to L38I, for which the abundance fitness is -0.091 ± 0.13.

For the variant L38R, the abundance fitness was -0.894 ± 0.091.

For the variant Y73N, the abundance fitness amounted to 0.043 ± 0.23.

Turning to Y73V, the abundance fitness is -0.171 ± 0.063.

Turning to Y73S, the abundance fitness is -0.011 ± 0.059.

As for P43F, the abundance fitness is -0.184 ± 0.093.

For P43A, the abundance fitness is -0.137 ± 0.056.

Regarding P43S, the abundance fitness was -0.023 ± 0.048.

As for P43H, the abundance fitness is -0.001 ± 0.11.

In the case of P43V, the abundance fitness is -0.076 ± 0.047.

Consider T59S, for which the abundance fitness stood at 0.104 ± 0.043.

In the case of T59K, the abundance fitness is -0.047 ± 0.077.

For the variant T59R, the abundance fitness was -0.001 ± 0.036.

For the variant T59N, the abundance fitness is -0.087 ± 0.056.

For the variant T77D, the abundance fitness was determined as 0.077 ± 0.06.

Take T77Q: the abundance fitness is -0.099 ± 0.078.

Regarding T77M, the abundance fitness is -0.164 ± 0.12.

Take E36H: the abundance fitness is -0.082 ± 0.079.

Regarding E36K, the abundance fitness is -0.008 ± 0.087.

As to E36G, the abundance fitness was -0.028 ± 0.047.

On to E36N, for which the abundance fitness turned out to be 0.054 ± 0.11.

With E36V, the abundance fitness was -0.102 ± 0.044.

E36W: the abundance fitness is -0.187 ± 0.064.

Consider E36A, for which the abundance fitness is -0.063 ± 0.052.

Regarding P68V, the abundance fitness stood at 0.082 ± 0.036.

P68R: the abundance fitness came to 0 ± 0.034.

As to P68F, the abundance fitness was -0.014 ± 0.076.

Consider P68H, for which the abundance fitness was 0.051 ± 0.093.

P68W: the abundance fitness was -0.057 ± 0.047.

Take P68G: the abundance fitness was -0.003 ± 0.027.

As to E13Q, the abundance fitness was 0.021 ± 0.067.

In the case of E13F, the abundance fitness was -0.349 ± 0.081.

As to L34E, the abundance fitness is -1.08 ± 0.22.

With L34H, the abundance fitness was -0.87 ± 0.21.

In the case of L34G, the abundance fitness is -1.09 ± 0.094.

Consider L34S, for which the abundance fitness was -0.869 ± 0.071.

For L34M, the abundance fitness was -0.208 ± 0.087.

For I75L, the abundance fitness was -0.017 ± 0.039.

In the case of I75Y, the abundance fitness is -0.013 ± 0.054.

Turning to I75V, the abundance fitness was determined as 0.024 ± 0.051.

As to I75Q, the abundance fitness was -0.026 ± 0.059.

For L11A, the abundance fitness is -0.258 ± 0.033.

Take L11T: the abundance fitness was -0.278 ± 0.082.

Consider L11K, for which the abundance fitness is -0.51 ± 0.1.

For the variant L11R, the abundance fitness was -0.428 ± 0.05.

With L11C, the abundance fitness is -0.62 ± 0.24.

In the case of L11D, the abundance fitness was -0.316 ± 0.13.

M22P: the abundance fitness was -0.739 ± 0.06.

Regarding M22I, the abundance fitness is -0.128 ± 0.097.

With M22F, the abundance fitness is -0.201 ± 0.075.

Consider M22S, for which the abundance fitness is -0.306 ± 0.04.

For the variant M22L, the abundance fitness is 0.015 ± 0.036.

For M22H, the abundance fitness is -0.226 ± 0.078.

For M22C, the abundance fitness was -0.114 ± 0.08.

P78Y: the abundance fitness was -0.098 ± 0.14.

Regarding P78N, the abundance fitness is -0.219 ± 0.18.

Consider P78G, for which the abundance fitness is -0.239 ± 0.11.

P78E: the abundance fitness is -0.44 ± 0.29.

For the variant N58S, the abundance fitness was -0.03 ± 0.048.

N58T: the abundance fitness is -0.018 ± 0.056.

For the variant N58P, the abundance fitness is -0.678 ± 0.074.

With N58E, the abundance fitness was found to be 0.001 ± 0.065.

In the case of I19R, the abundance fitness is -1.01 ± 0.088.

Take E63A: the abundance fitness was -0.019 ± 0.039.

Take E63N: the abundance fitness was -0.028 ± 0.088.

On to E63I, for which the abundance fitness was -0.234 ± 0.13.

For E63T, the abundance fitness was -0.049 ± 0.053.

As to T56Y, the abundance fitness was -0.26 ± 0.23.

For T56Q, the abundance fitness was -0.045 ± 0.066.

As for T56F, the abundance fitness is -0.036 ± 0.034.

P2V: the abundance fitness was determined as 0.001 ± 0.052.

As for P2K, the abundance fitness is -0.137 ± 0.081.

Take P2N: the abundance fitness was determined as 0.188 ± 0.17.

Regarding E51S, the abundance fitness was -0.039 ± 0.056.

For E51C, the abundance fitness is -0.104 ± 0.077.

As for E51W, the abundance fitness is -0.145 ± 0.062.

Regarding E51T, the abundance fitness is -0.085 ± 0.088.

Regarding E51N, the abundance fitness is -0.301 ± 0.17.

Take E51F: the abundance fitness is -0.207 ± 0.1.

As to E51A, the abundance fitness was -0.085 ± 0.048.

L17V: the abundance fitness is -0.059 ± 0.043.

For L17P, the abundance fitness was -0.092 ± 0.052.

With L17F, the abundance fitness is -0.096 ± 0.093.

As to L17T, the abundance fitness was found to be 0.043 ± 0.066.

Regarding L17N, the abundance fitness amounted to 0.079 ± 0.087.

For A25P, the abundance fitness is -0.368 ± 0.061.

For the variant A25H, the abundance fitness was -0.001 ± 0.12.

A25V: the abundance fitness was -0.033 ± 0.044.

For the variant V76K, the abundance fitness amounted to 0.032 ± 0.099.

For the variant V76W, the abundance fitness was -0.028 ± 0.051.

As to V76E, the abundance fitness amounted to 0.037 ± 0.064.

On to V76T, for which the abundance fitness is -0.03 ± 0.057.

As to V76M, the abundance fitness amounted to 0.035 ± 0.075.

On to V76I, for which the abundance fitness was -0.363 ± 0.12.

As for V76P, the abundance fitness was found to be 0.001 ± 0.051.

As to V76Y, the abundance fitness is -0.087 ± 0.11.

Take Q7N: the abundance fitness was -0.015 ± 0.16.

As for Q7L, the abundance fitness is -0.085 ± 0.052.

Take Q7A: the abundance fitness came to 0.043 ± 0.053.

With Q7D, the abundance fitness is -0.032 ± 0.17.

For S20H, the abundance fitness is -0.219 ± 0.12.

Regarding S20N, the abundance fitness worked out at 0.076 ± 0.16.

In the case of S20W, the abundance fitness is -0.419 ± 0.053.

As to S20A, the abundance fitness was -0.104 ± 0.039.

Turning to S20E, the abundance fitness was -0.022 ± 0.069.

Turning to R64W, the abundance fitness is -0.211 ± 0.041.

Take R64E: the abundance fitness was found to be 0.112 ± 0.075.

As to R64V, the abundance fitness is -0.22 ± 0.049.

With R64Y, the abundance fitness is -0.174 ± 0.17.

For the variant R64F, the abundance fitness is -0.286 ± 0.082.

Consider Q5K, for which the abundance fitness came to 0.012 ± 0.09.

As for Q5D, the abundance fitness is -0.021 ± 0.079.

Q5W: the abundance fitness was -0.276 ± 0.051.

As for Q5T, the abundance fitness was determined as 0.049 ± 0.055.

In the case of Q5S, the abundance fitness is -0.007 ± 0.035.

On to Q5P, for which the abundance fitness is -0.125 ± 0.055.

Turning to Q5A, the abundance fitness was 0.037 ± 0.041.

Turning to Q5G, the abundance fitness is -0.12 ± 0.037.

In the case of R62G, the abundance fitness is -0.008 ± 0.038.

Consider R62I, for which the abundance fitness was 0.006 ± 0.07.

Take R62K: the abundance fitness was -0.109 ± 0.18.

Regarding G44N, the abundance fitness is 0.024 ± 0.17.

Take G44T: the abundance fitness was -0.037 ± 0.054.

Consider G44H, for which the abundance fitness was -0.023 ± 0.077.

Turning to G44F, the abundance fitness is -0.156 ± 0.069.

Turning to G44P, the abundance fitness is -0.063 ± 0.053.

Consider V45C, for which the abundance fitness was -0.003 ± 0.05.

Regarding V45S, the abundance fitness was -0.113 ± 0.043.

As to V45H, the abundance fitness worked out at 0.078 ± 0.12.

As to V45L, the abundance fitness is -0.05 ± 0.031.

N23R: the abundance fitness was -0.156 ± 0.031.

As for N23Y, the abundance fitness is -0.357 ± 0.087.
